Results on six substances are retold here after article PMC9060465, “Structural determinants of dual incretin receptor agonism by tirzepatide” (Proceedings of the National Academy of Sciences of the …, 2022).

Assay [1] deals with mouse GLP-1R, endogenous in pancreatic islets (mouse (endogenous in pancreatic islets)) (UniProt O35659).
In assay [2] the target is human GLP-1R expressed in HEK293 cells (human) (UniProt P43220). The note with it: ligand.
For assay [3] the target is unchanged. In words: radioligand binding.
The target in assay [4] is human GIPR expressed in HEK293 cells (human) (UniProt P48546). The experiment in a line: radioligand binding.
The target in assay [5] is isolated extracellular domain (ECD) of human GIPR, amino acids 26 to 138 (human) (UniProt P48546). In words: SPR. A general note: SPR reads the build-up and loss of mass on a sensor chip optically.
Assay [6] has as its target isolated extracellular domain (ECD) of human GLP-1R, amino acids 24 to 145 (human) (UniProt P43220). In words: SPR.

Chain of human GLP-1R expressed in HEK293 cells (human) (P43220 24-463): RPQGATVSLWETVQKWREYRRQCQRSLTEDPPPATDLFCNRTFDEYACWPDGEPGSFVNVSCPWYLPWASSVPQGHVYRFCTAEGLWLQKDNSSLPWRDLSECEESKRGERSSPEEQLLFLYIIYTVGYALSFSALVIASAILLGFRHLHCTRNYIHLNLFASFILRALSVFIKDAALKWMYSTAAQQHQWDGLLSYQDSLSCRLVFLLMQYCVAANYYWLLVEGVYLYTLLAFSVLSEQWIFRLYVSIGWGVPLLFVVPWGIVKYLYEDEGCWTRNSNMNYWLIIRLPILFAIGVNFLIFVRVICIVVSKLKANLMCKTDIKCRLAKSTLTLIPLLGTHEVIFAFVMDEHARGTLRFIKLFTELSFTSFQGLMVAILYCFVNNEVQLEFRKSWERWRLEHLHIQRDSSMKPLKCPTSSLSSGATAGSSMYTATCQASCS
Chain of mouse GLP-1R, endogenous in pancreatic islets (mouse (endogenous in pancreatic islets)) (O35659 22-463): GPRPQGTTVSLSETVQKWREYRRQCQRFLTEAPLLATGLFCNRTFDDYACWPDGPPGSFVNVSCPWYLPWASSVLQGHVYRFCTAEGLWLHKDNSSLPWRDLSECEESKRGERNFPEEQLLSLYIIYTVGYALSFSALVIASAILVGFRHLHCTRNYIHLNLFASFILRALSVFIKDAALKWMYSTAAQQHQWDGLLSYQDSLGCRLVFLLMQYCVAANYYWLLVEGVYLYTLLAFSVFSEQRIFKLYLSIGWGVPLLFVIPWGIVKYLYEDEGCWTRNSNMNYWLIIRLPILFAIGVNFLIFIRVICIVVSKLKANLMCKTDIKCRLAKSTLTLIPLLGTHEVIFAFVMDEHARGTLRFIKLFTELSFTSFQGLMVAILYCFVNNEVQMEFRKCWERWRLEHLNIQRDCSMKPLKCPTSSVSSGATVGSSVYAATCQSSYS
Chain of isolated extracellular domain (ECD) of human GIPR, amino acids 26 to 138 (human) (P48546 26-138): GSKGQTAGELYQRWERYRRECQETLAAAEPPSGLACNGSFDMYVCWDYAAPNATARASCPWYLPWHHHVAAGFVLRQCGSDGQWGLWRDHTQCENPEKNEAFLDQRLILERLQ
Chain of isolated extracellular domain (ECD) of human GLP-1R, amino acids 24 to 145 (human) (P43220 24-145): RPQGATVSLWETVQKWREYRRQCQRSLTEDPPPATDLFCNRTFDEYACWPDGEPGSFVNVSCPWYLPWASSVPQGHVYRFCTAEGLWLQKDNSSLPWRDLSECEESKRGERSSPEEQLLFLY
Chain of human GIPR expressed in HEK293 cells (human) (P48546 22-466): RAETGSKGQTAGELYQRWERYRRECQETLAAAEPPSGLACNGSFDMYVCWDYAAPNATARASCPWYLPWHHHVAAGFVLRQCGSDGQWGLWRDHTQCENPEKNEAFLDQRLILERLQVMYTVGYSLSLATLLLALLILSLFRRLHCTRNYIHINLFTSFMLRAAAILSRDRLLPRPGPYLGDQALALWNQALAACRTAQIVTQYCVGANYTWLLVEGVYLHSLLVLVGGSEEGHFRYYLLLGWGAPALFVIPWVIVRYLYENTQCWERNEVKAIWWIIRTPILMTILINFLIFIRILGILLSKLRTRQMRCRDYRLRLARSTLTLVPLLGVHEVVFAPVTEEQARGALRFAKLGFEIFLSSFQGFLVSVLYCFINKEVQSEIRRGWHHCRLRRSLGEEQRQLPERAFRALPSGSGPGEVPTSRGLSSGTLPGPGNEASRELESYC

tirzepatide^AF647 (peptide): the intracellular fluorescence intensity of islet cells from wild-type mice, 30 nM labelled ligand for 30 min, confocal microscopy; negligible (≤4.0) after exendin-4(9-39) or in Glp-1r null islets in assay [1] is 46.
What is called Ki is the dissociation constant of the complex between target and ligand, obtained from inhibition or displacement. The low end stands for a stronger hold on the target, the high end for a looser hold on the target. In assay [2], glucagon-like peptide-1 (GLP-1) displayed a Ki of 0.594 nM.
In turn, tirzepatide^ΔC20,Y1H-AF647 (peptide) gave an intracellular fluorescence intensity of islet cells from wild-type mice, 30 nM labelled ligand for 30 min, confocal microscopy; negligible (≤4.0) after exendin-4(9-39) or in Glp-1r null islets in assay [1] of 85.3.
The Kd is the concentration at which binding is half-saturated. Low readings indicate a tighter complex, high ones a looser complex. As to “tirzepatide analog lacking the lipid moiety (TZP^ΔC20) (peptide)”, the other in assay [3] is 5 fold; in assay [4], 4 fold. The Kd amounted to 1700 nM in assay [5] and 111 nM in assay [6].
In turn, tirzepatide (LY3298176) (peptide) displayed an other in assay [3] of 5 fold. Moreover, the Kd in assay [5] is 4200 nM.
In assay [1], GLP-1^AF647 (ligand) returned an intracellular fluorescence intensity of islet cells from wild-type mice, 30 nM labelled ligand for 30 min, confocal microscopy; negligible (≤4.0) after exendin-4(9-39) or in Glp-1r null islets of 104.
